From PMC5362033, “The Vitamin B12-Dependent Photoreceptor AerR Relieves Photosystem Gene Repression by Extending the Interaction of CrtJ with Photosystem Promoters” (mBio, 2017)

B1: CrtJ (natural protein, Rhodobacter capsulatus, UniProt P26167 1-469, looked up)
chain: MTSDGSFLMRREALQRVSPDLLADIVTSACDIALVVSPGRVVESVMVNPQFGSAERFAAWQGARLSQLFSPESAQKLENRLADGPEPGRSLQLELTHAADAFTLPVRYTITRSGEDGTLLLIGRDMQPLAEVQQQLVKAQLALERDYEAQREIETRYRVLLEAHPAPLLIVSMSTGRIADLNLAAAAMIGATRAELIDAPVGQELDGRRRGEFLENLAKIAGSDPLGAVELTIRRSRRKVTVTATLFRAAGDRLLLCRLGEAEARRTRVDDTVELSERLFLKGIDAMVFLDADGTIRAANDAFLYLTDAGSAALVQGRSFADFLSRGAVDLNVLLDNVKRIGHLRHYVTRLNTDFSGQVTVELSATLFHDRATPTIALVIRDSNLADATRIMPGMASNEGLRNVMQMVGYATLRDIVSETTEIIEKMCIETALELTGNNRVAAAELLSLSRQSLYVKLRKFGLLSKDAE
notes: CrtJ, aerobic repressor of photosystem genes, Rhodobacter capsulatus (strain SB1003 is the wild-type parent); calculated molecular mass of the dimer 101.0 kDa; also called CrtJ2; CrtJ dimer; source: E. coli BL21(DE3) bearing pSUMO-CrtJ, overexpressed as SUMO-tagged protein, purified according to previous studies

Key:
[1] = test system: CrtJ;AerR (Rhodobacter capsulatus;Rhodobacter capsulatus); experiment: EMSA; conditions: EMSA with 10 nM bchC DNA, oxidizing (O2) or reducing (10 mM DTT), Hill fit; buffer, salt, pH and temperature not in the material (reported previously, ref. 20)
[2] = target: the molecule itself; experiment: SEC-MALS; size exclusion chromatography coupled with multiangle light scattering (Wyatt), analysed with ASTRA 6, BSA for calibration; CrtJ alone and CrtJ with added AerR
CrtJ = target: B1; experiment: as above; conditions: both partners purified

bchC promoter EMSA probe, 325 bp
binding signal (fold higher affinity than CrtJ alone) [1]: 6

B1
stoichiometry N [2]: 2

B2: AerR (natural protein)
chain: MNGVAELQTVLVNRMVELATGPELGAMDLLFDEFRAAHVPVEEMATHYIPEAARQIGAAWDSDRIGFAQVTIAISRLQELLHALQTLVTADSVGCANGATVLLIVPPGEQHTLGALIVAMELRRRGVSVRIVFAPGLSDLSRLMATTRFDAALITVGSMDRVEICAKLVKTLSSLTKGRMRVAIGGAIVSQRAEALARTGADLVTNDLSLVISEFSLV
stoichiometry N (CrtJ): 0.5 AerR per CrtJ chain (1:2)
